Test results reported in patent publication US20170008943A1 (Novo Nordisk, published 2017).
*1 amine or outer side, *2 acyl side, *3 side chain or, on linkers, in order; H or OH if unused. Side-chain parts run from the residue outwards. [ ]: non-standard residue; d: D form. The star is where a group is joined. γGlu = O=C(O)[C@H](CCC(=O)[*:2])N[*:1]; Desaminohistidyl = O=C(CCc1c[nH]cn1)*; Aib = CC(C)(N)C(=O)O

B1: N^ε24-[(4S)-4-[[(4S)-4-[[(4S)-4-acetamido-4-carboxybutanoyl]amino]-4-carboxybutanoyl]amino]-4-carboxybutanoyl]-[Imp1, His3, Glu15, Glu21, Lys24, Leu27, … (peptide)
peptide: [Desaminohistidyl]SHGTFTSDYSKYLESRRAQEFVK([γGlu-γGlu-γGlu-Ac])WLLST-OH
SMILES: CC(=O)N[C@@H](CCC(=O)N[C@@H](CCC(=O)N[C@@H](CCC(=O)NCCCC[C@H](NC(=O)[C@@H](NC(=O)[C@H](Cc1ccccc1)NC(=O)[C@H](CCC(=O)O)NC(=O)[C@H](CCC(N)=O)NC(=O)[C@H](C)NC(=O)[C@H](CCCNC(=N)N)NC(=O)[C@H](CCCNC(=N)N)NC(=O)[C@H](CO)NC(=O)[C@H](CCC(=O)O)NC(=O)[C@H](CC(C)C)NC(=O)[C@H](Cc1ccc(O)cc1)NC(=O)[C@H](CCCCN)NC(=O)[C@H](CO)NC(=O)[C@H](Cc1ccc(O)cc1)NC(=O)[C@H](CC(=O)O)NC(=O)[C@H](CO)NC(=O)[C@@H](NC(=O)[C@H](Cc1ccccc1)NC(=O)[C@@H](NC(=O)CNC(=O)[C@H](Cc1c[nH]cn1)NC(=O)[C@H](CO)NC(=O)CCc1c[nH]cn1)[C@@H](C)O)[C@@H](C)O)C(C)C)C(=O)N[C@@H](Cc1c[nH]c2ccccc12)C(=O)N[C@@H](CC(C)C)C(=O)N[C@@H](CC(C)C)C(=O)N[C@@H](CO)C(=O)N[C@H](C(=O)O)[C@@H](C)O)C(=O)O)C(=O)O)C(=O)O
notes: Imp written X under substitutions
B2: N^ε24-[(4S)-4-[[(4S)-4-[[(4S)-4-[[(4S)-4-[[(4S)-4-acetamido-4-carboxybutanoyl]amino]-4-carboxybutanoyl]amino]-4-carboxybutanoyl]amino]-4-carboxybutanoyl]amino]- … (peptide)
peptide: XSHGTFTSDYSKYLESRRAQEFVKWLLST
modifications: Imp (imidazopropionyl, des-amino-histidine) at position 1; N-epsilon of Lys24 acylated with acetyl-(gamma-Glu)5 substituent as in the name; C-terminal carboxylic acid
notes: as for B1
B3: N^ε24-[2-[[(4S)-4-[[(4S)-4-[[(4S)-4-[[(4S)-4-acetamido-4-carboxybutanoyl]amino]-4-carboxybutanoyl]amino]-4-carboxybutanoyl]amino]-4-carboxybutanoyl]amino]acetyl … (peptide)
peptide: [Desaminohistidyl]SHGTFTSDYSKYLESRRAQEFVK([Gly-γGlu-γGlu-γGlu-γGlu-Ac])WLLST-OH
SMILES: CC(=O)N[C@@H](CCC(=O)N[C@@H](CCC(=O)N[C@@H](CCC(=O)N[C@@H](CCC(=O)NCC(=O)NCCCC[C@H](NC(=O)[C@@H](NC(=O)[C@H](Cc1ccccc1)NC(=O)[C@H](CCC(=O)O)NC(=O)[C@H](CCC(N)=O)NC(=O)[C@H](C)NC(=O)[C@H](CCCNC(=N)N)NC(=O)[C@H](CCCNC(=N)N)NC(=O)[C@H](CO)NC(=O)[C@H](CCC(=O)O)NC(=O)[C@H](CC(C)C)NC(=O)[C@H](Cc1ccc(O)cc1)NC(=O)[C@H](CCCCN)NC(=O)[C@H](CO)NC(=O)[C@H](Cc1ccc(O)cc1)NC(=O)[C@H](CC(=O)O)NC(=O)[C@H](CO)NC(=O)[C@@H](NC(=O)[C@H](Cc1ccccc1)NC(=O)[C@@H](NC(=O)CNC(=O)[C@H](Cc1c[nH]cn1)NC(=O)[C@H](CO)NC(=O)CCc1c[nH]cn1)[C@@H](C)O)[C@@H](C)O)C(C)C)C(=O)N[C@@H](Cc1c[nH]c2ccccc12)C(=O)N[C@@H](CC(C)C)C(=O)N[C@@H](CC(C)C)C(=O)N[C@@H](CO)C(=O)N[C@H](C(=O)O)[C@@H](C)O)C(=O)O)C(=O)O)C(=O)O)C(=O)O
notes: as for B1
B4: N^ε24-[(4S)-4-[[(4S)-4-[[(4S)-4-[[(4S)-4-acetamido-4-carboxybutanoyl]amino]-4-carboxybutanoyl]amino]-4-carboxybutanoyl]amino]-4-carboxybutanoyl]-[Imp1, His3, … (peptide)
peptide: [Desaminohistidyl]SHGTFTSDYSKYLD[Aib]RRAQDFVK([γGlu-γGlu-γGlu-γGlu-Ac])WLLST-OH
SMILES: CC(=O)N[C@@H](CCC(=O)N[C@@H](CCC(=O)N[C@@H](CCC(=O)N[C@@H](CCC(=O)NCCCC[C@H](NC(=O)[C@@H](NC(=O)[C@H](Cc1ccccc1)NC(=O)[C@H](CC(=O)O)NC(=O)[C@H](CCC(N)=O)NC(=O)[C@H](C)NC(=O)[C@H](CCCNC(=N)N)NC(=O)[C@H](CCCNC(=N)N)NC(=O)C(C)(C)NC(=O)[C@H](CC(=O)O)NC(=O)[C@H](CC(C)C)NC(=O)[C@H](Cc1ccc(O)cc1)NC(=O)[C@H](CCCCN)NC(=O)[C@H](CO)NC(=O)[C@H](Cc1ccc(O)cc1)NC(=O)[C@H](CC(=O)O)NC(=O)[C@H](CO)NC(=O)[C@@H](NC(=O)[C@H](Cc1ccccc1)NC(=O)[C@@H](NC(=O)CNC(=O)[C@H](Cc1c[nH]cn1)NC(=O)[C@H](CO)NC(=O)CCc1c[nH]cn1)[C@@H](C)O)[C@@H](C)O)C(C)C)C(=O)N[C@@H](Cc1c[nH]c2ccccc12)C(=O)N[C@@H](CC(C)C)C(=O)N[C@@H](CC(C)C)C(=O)N[C@@H](CO)C(=O)N[C@H](C(=O)O)[C@@H](C)O)C(=O)O)C(=O)O)C(=O)O)C(=O)O
notes: Imp and Aib written X under substitutions
B5: N^α([Imp1, His3, Glu15, Glu21, Leu27, … (peptide)
peptide: [Desaminohistidyl]SHGTFTSDYSKYLESRRAQEFVQWLLSTK([γGlu-γGlu-γGlu-γGlu-Ac])-OH
SMILES: CC(=O)N[C@@H](CCC(=O)N[C@@H](CCC(=O)N[C@@H](CCC(=O)N[C@@H](CCC(=O)NCCCC[C@H](NC(=O)[C@@H](NC(=O)[C@H](CO)NC(=O)[C@H](CC(C)C)NC(=O)[C@H](CC(C)C)NC(=O)[C@H](Cc1c[nH]c2ccccc12)NC(=O)[C@H](CCC(N)=O)NC(=O)[C@@H](NC(=O)[C@H](Cc1ccccc1)NC(=O)[C@H](CCC(=O)O)NC(=O)[C@H](CCC(N)=O)NC(=O)[C@H](C)NC(=O)[C@H](CCCNC(=N)N)NC(=O)[C@H](CCCNC(=N)N)NC(=O)[C@H](CO)NC(=O)[C@H](CCC(=O)O)NC(=O)[C@H](CC(C)C)NC(=O)[C@H](Cc1ccc(O)cc1)NC(=O)[C@H](CCCCN)NC(=O)[C@H](CO)NC(=O)[C@H](Cc1ccc(O)cc1)NC(=O)[C@H](CC(=O)O)NC(=O)[C@H](CO)NC(=O)[C@@H](NC(=O)[C@H](Cc1ccccc1)NC(=O)[C@@H](NC(=O)CNC(=O)[C@H](Cc1c[nH]cn1)NC(=O)[C@H](CO)NC(=O)CCc1c[nH]cn1)[C@@H](C)O)[C@@H](C)O)C(C)C)[C@@H](C)O)C(=O)O)C(=O)O)C(=O)O)C(=O)O)C(=O)O
notes: as for B1
B6: N^ε28-[(4S)-4-[[(4S)-4-[[(4S)-4-[[(4S)-4-acetamido-4-carboxybutanoyl]amino]-4-carboxybutanoyl]amino]-4-carboxybutanoyl]amino]-4-carboxybutanoyl]-[Imp1, His3, … (peptide)
peptide: [Desaminohistidyl]SHGTFTSDYSKYLESRRAQEFVQWLLK([γGlu-γGlu-γGlu-γGlu-Ac])T-OH
SMILES: CC(=O)N[C@@H](CCC(=O)N[C@@H](CCC(=O)N[C@@H](CCC(=O)N[C@@H](CCC(=O)NCCCC[C@H](NC(=O)[C@H](CC(C)C)NC(=O)[C@H](CC(C)C)NC(=O)[C@H](Cc1c[nH]c2ccccc12)NC(=O)[C@H](CCC(N)=O)NC(=O)[C@@H](NC(=O)[C@H](Cc1ccccc1)NC(=O)[C@H](CCC(=O)O)NC(=O)[C@H](CCC(N)=O)NC(=O)[C@H](C)NC(=O)[C@H](CCCNC(=N)N)NC(=O)[C@H](CCCNC(=N)N)NC(=O)[C@H](CO)NC(=O)[C@H](CCC(=O)O)NC(=O)[C@H](CC(C)C)NC(=O)[C@H](Cc1ccc(O)cc1)NC(=O)[C@H](CCCCN)NC(=O)[C@H](CO)NC(=O)[C@H](Cc1ccc(O)cc1)NC(=O)[C@H](CC(=O)O)NC(=O)[C@H](CO)NC(=O)[C@@H](NC(=O)[C@H](Cc1ccccc1)NC(=O)[C@@H](NC(=O)CNC(=O)[C@H](Cc1c[nH]cn1)NC(=O)[C@H](CO)NC(=O)CCc1c[nH]cn1)[C@@H](C)O)[C@@H](C)O)C(C)C)C(=O)N[C@H](C(=O)O)[C@@H](C)O)C(=O)O)C(=O)O)C(=O)O)C(=O)O
notes: as for B1
B7: N^ε29-[(4S)-4-[[(4S)-4-[[(4S)-4-[[(4S)-4-acetamido-4-carboxybutanoyl]amino]-4-carboxybutanoyl]amino]-4-carboxybutanoyl]amino]-4-carboxybutanoyl]-[Imp1, His3, … (peptide)
peptide: [Desaminohistidyl]SHGTFTSDYSKYLESRRAQEFVQWLLSK([γGlu-γGlu-γGlu-γGlu-Ac])-OH
SMILES: CC(=O)N[C@@H](CCC(=O)N[C@@H](CCC(=O)N[C@@H](CCC(=O)N[C@@H](CCC(=O)NCCCC[C@H](NC(=O)[C@H](CO)NC(=O)[C@H](CC(C)C)NC(=O)[C@H](CC(C)C)NC(=O)[C@H](Cc1c[nH]c2ccccc12)NC(=O)[C@H](CCC(N)=O)NC(=O)[C@@H](NC(=O)[C@H](Cc1ccccc1)NC(=O)[C@H](CCC(=O)O)NC(=O)[C@H](CCC(N)=O)NC(=O)[C@H](C)NC(=O)[C@H](CCCNC(=N)N)NC(=O)[C@H](CCCNC(=N)N)NC(=O)[C@H](CO)NC(=O)[C@H](CCC(=O)O)NC(=O)[C@H](CC(C)C)NC(=O)[C@H](Cc1ccc(O)cc1)NC(=O)[C@H](CCCCN)NC(=O)[C@H](CO)NC(=O)[C@H](Cc1ccc(O)cc1)NC(=O)[C@H](CC(=O)O)NC(=O)[C@H](CO)NC(=O)[C@@H](NC(=O)[C@H](Cc1ccccc1)NC(=O)[C@@H](NC(=O)CNC(=O)[C@H](Cc1c[nH]cn1)NC(=O)[C@H](CO)NC(=O)CCc1c[nH]cn1)[C@@H](C)O)[C@@H](C)O)C(C)C)C(=O)O)C(=O)O)C(=O)O)C(=O)O)C(=O)O
notes: as for B1
B8: Nε^21-[(4S)-4-[[(4S)-4-[[(4S)-4-[[(4S)-4-acetamido-4-carboxybutanoyl]amino]-4-carboxybutanoyl]amino]-4-carboxybutanoyl]amino]-4-carboxybutanoyl]-[Imp1, His3, … (peptide)
peptide: [Desaminohistidyl]SHGTFTSDYSKYLESRRAQK([γGlu-γGlu-γGlu-γGlu-Ac])FVQWLLST-OH
SMILES: CC(=O)N[C@@H](CCC(=O)N[C@@H](CCC(=O)N[C@@H](CCC(=O)N[C@@H](CCC(=O)NCCCC[C@H](NC(=O)[C@H](CCC(N)=O)NC(=O)[C@H](C)NC(=O)[C@H](CCCNC(=N)N)NC(=O)[C@H](CCCNC(=N)N)NC(=O)[C@H](CO)NC(=O)[C@H](CCC(=O)O)NC(=O)[C@H](CC(C)C)NC(=O)[C@H](Cc1ccc(O)cc1)NC(=O)[C@H](CCCCN)NC(=O)[C@H](CO)NC(=O)[C@H](Cc1ccc(O)cc1)NC(=O)[C@H](CC(=O)O)NC(=O)[C@H](CO)NC(=O)[C@@H](NC(=O)[C@H](Cc1ccccc1)NC(=O)[C@@H](NC(=O)CNC(=O)[C@H](Cc1c[nH]cn1)NC(=O)[C@H](CO)NC(=O)CCc1c[nH]cn1)[C@@H](C)O)[C@@H](C)O)C(=O)N[C@@H](Cc1ccccc1)C(=O)N[C@H](C(=O)N[C@@H](CCC(N)=O)C(=O)N[C@@H](Cc1c[nH]c2ccccc12)C(=O)N[C@@H](CC(C)C)C(=O)N[C@@H](CC(C)C)C(=O)N[C@@H](CO)C(=O)N[C@H](C(=O)O)[C@@H](C)O)C(C)C)C(=O)O)C(=O)O)C(=O)O)C(=O)O
notes: as for B1

Molecular target: T1, human glucagon receptor (human, UniProt P47871 26-477)
T1 sequence (P47871 26-477): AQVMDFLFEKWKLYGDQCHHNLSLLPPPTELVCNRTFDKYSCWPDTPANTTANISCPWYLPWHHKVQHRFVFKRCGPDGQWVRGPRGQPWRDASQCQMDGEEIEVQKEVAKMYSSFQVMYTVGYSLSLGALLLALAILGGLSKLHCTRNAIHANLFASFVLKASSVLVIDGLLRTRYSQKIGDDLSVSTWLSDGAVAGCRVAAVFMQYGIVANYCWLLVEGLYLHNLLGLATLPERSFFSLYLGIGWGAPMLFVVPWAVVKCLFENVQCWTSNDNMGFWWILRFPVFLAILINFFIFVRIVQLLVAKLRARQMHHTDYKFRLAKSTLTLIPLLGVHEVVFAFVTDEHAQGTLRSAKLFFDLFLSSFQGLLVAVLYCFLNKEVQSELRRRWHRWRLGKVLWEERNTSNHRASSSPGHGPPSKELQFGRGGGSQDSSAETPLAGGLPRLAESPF
Test: cell-based or functional assay

| Binder | EC50 hGlucagonR (pM), CRE luciferase reporter in BHK cells [pM] |
| --- | --- |
| B1 | 6 |
| B2 | 6 |
| B3 | 9.9 |
| B4 | 2 |
| B5 | 4 |
| B6 | 6 |
| B7 | 4 |
| B8 | 17 |

Molecular target: T1, human glucagon receptor
Test: displacement of 125I-glucagon from BHK membranes with human glucagon receptor (SPA), Assay (II)(b)

| Binder | IC50 [nM] |
| --- | --- |
| B1 | 1.5 |
| B2 | 2.7 |
| B3 | 2.5 |
| B4 | 0.3 |
| B5 | 2 |
| B6 | 2.6 |
| B7 | 5.1 |
| B8 | 5.2 |
